Source: US11241502B2, “Stable compositions of pegylated carfilzomib compounds” (AMGEN INC., priority 2017, dated 2022)

Tests used:
[1] = reverse phase assay of main API peak (integrity of the molecule); assay type: physicochemical
Experimental: In order to identify stable formulations of PEG-CFZ, various formulations were made wherein the desired pegylated carfilzomib compound (API) was dissolve in experimental compositions of excipients, and the stability and quantity of the intact, non-degraded API was monitored and measured in the frozen state (−20° C. or below). Formulations of API was also prepared and tested to determine the ability of each exemplary formulation to provide adequate stability in the liquid state to be suitable for clinical and commercial administration. Here, these formulations were stored at least 8 hours at room temperature and 2 days at a temperatures ranging from 2-8° C. All formulations that were tested contained desired API compounds at 1 mg/mL concentrations.
For each formulation, the stability of the API was tested using three observable and/or measurable characteristics, as follows: • 1. Integrity of the molecule, as assessed by the reverse phase assay; • 2. Clarity of the solution, via visual assessment; and • 3. Concentration of the API material in the solution, as assessed by material recovery after centrifugation Results
FIG. 2 illustrates results of similar measurements taken with the same formulations prepared with exemplary pegylated carfilzomib compound no. 39 instead of example 26. API material recovery is similarly shown in red and percent main API peak at To and T3, as measured by the same reverse phase assay, after storage at 25° C. for 3 days, is shown. Solutions for temperature and time storage conditions were generally prepared as follows—CFZ API was dissolved in formulation buffer by stirring at room temperature for a period of 5 minutes until complete dissolution. Samples were then sterile filtered using 0.2 micron PES filters under aseptic conditions into 3 cc vials, using a 1 ml fill. […]
The percent recovery of the exemplary pegylated carfilomib compounds were measured as a function of reverse phase assays for the peak(s) representing the active molecule/compound. The percent was determined based on the area under the curve, as described below. The reverse phase assays were conducted as follows—CFZ samples were analyzed by reverse phase using a Phenomenex Gemini C18, 50×4.6 mm, 3 micron particle size column with a 47 minute HPLC method. […] Main peak percentage was determined by taking Area Under the Curve integration. […] The concentration of each unknown sample was calculated using the equation of the trend-line generated from this calibration curve by plugging in the total integrated area.
For each exemplary formulation, the stability of the API was tested or measured by six different criteria or methods, as follows: • 1. Integrity of the molecule, as assessed by the reverse phase assay; • 2. […]

[2] = in humans; cited from earlier work
[3] = system: human colorectal adenocarcinoma cancer cell; assay: mouse xenograft model of human colorectal adenocarcinoma; settings: once-weekly intravenous dosing; Example 13 200 mpk or 150 rising to 250 mpk after 3 week; CFZ-captisol 5 mpk; within 19 days of the first dose

Molecule: 4-((4S,7S,10S,13S)-10-Benzyl-7-isobutyl-15-methyl-13-((R)-2-methyloxirane-2-carbonyl)-2,5,8,11-tetraoxo-4-phenethyl-3,6,9,12-tetraazahexadecyl)-4-(4-(isobutyryloxy)-3-((PEG5K-imino)methyl)benzyl)morpholin-4-ium Methanesulfonate [Example 26]
- main API peak loss (Table 6) ([1]; 5kPEG-CFZ compound example 26, 25° C. (8 h), 4° C. (in 1 week) and −70° C. (in 2 weeks)): minimal main API peak loss
- main API peak loss, 4° C. Loss per 1 week ([1]; A5Su formulation, API at 20 mg/mL, storage at 4° C.): 0.0
- main API peak loss, 25° C. loss per 8 hr ([1]; A5Su formulation, API at 20 mg/mL, storage at 25° C.): 0.0
- main API peak loss, −70° C. loss per 2 weeks ([1]; A5Su formulation, API at 20 mg/mL, storage at −70° C.): 0.0

Molecule: CC(C)C[C@H](NC(=O)[C@H](CCc1ccccc1)NC(=O)CN1CCOCC1)C(=O)N[C@@H](Cc1ccccc1)C(=O)N[C@@H](CC(C)C)C(=O)[C@@]1(C)CO1 [Carfilzomib]
- half-life in-vivo [2]: ≤ 1 h

Molecule: 4-((4S,7S,10S,13S)-10-Benzyl-7-isobutyl-15-methyl-13-((R)-2-methyloxirane-2-carbonyl)-2,5,8,11-tetraoxo-4-phenethyl-3,6,9,12-tetraazahexadecyl)-4-(3-((1-(PEG20K-4-Arm)-1H-1,2,3-triazol-4-yl)methoxy)-4-(pivaloyloxy)benzyl)morpholin-4-ium Formate [Example 13]
- tumor growth compared to vehicle control [3]: significant attenuation of tumor growth
